# B1: Pistol ribozyme (parent)
# chain: GGGUCGUUGUUCCAUAAUCGCGUGGAUAUGGCACGCAAGUUUCUACCGGGCACCGUAAAUGUCCGACUGGAGCCGUUCGGGCGGCUAUAAACAGACCUCAGGCCCGAAGCGUGGCGGCACCUGCCGCCGGUGGUAAAAAAGAUCGGAAGAGCACACGUCU
# Variants of: B1
# Experiment: aptazyme ON/OFF ratio, guanine; higher = stronger switching; co-transcriptional cleavage with and without guanine
row,Variant,aptazyme ON/OFF ratio
1,U7C U8A G9A U10A U11G C12A C13A,1.11
2,U7C U8A G9A U10A U11G C12A C13U,1.18
3,U7C U8A G9A U10A U11G C12A C13G,1.09
4,U7C U8A G9A U10C U11C C12A C13G,1.05
5,U7C U8A G9A U10C U11C C12A C13U,1.09
6,U7C U8A G9A U10C U11C C12A C13A,1.03
7,U7C U8A G9A C12U C13G,1.19
8,U7C U8A G9A C12U C13U,1.18
9,U7C U8A G9A C12U C13A,1.19
10,U7C U8A G9A U10C U11G C12A C13A,1.2
11,U7C U8A G9A U10C U11G C12A C13G,1.16
12,U7C U8A G9A U10C U11G C12A C13U,1.14
13,U7C G9U U10G U11A C12U C13A,1.19
14,U7C G9U U10G U11A C12U C13U,1.1
15,U7C G9U U10G U11A C12U C13G,1.1
16,U7C U8A G9A U10G U11A,1.01
17,U7C G9U U10G U11G C12U C13A,1.07
18,U7C G9U U10G U11G C12U C13G,1.13
19,U7C G9U U10G U11G C12U C13U,1.11
20,U7C U8A G9A U10G C12A,1.15
21,U7C U8A G9A U10G C12U,1.29

row,Variant,aptazyme ON/OFF ratio
1,U7C U8A G9A U10G C12G,1.25
2,U7C U8A G9A U10G C13U,1.39
3,U7C U8A G9A U10G C13A,1.17
4,U7C U8A G9A U10G C13G,1.08
5,U7C G9U U10G C12G C13G,1.12
6,U7C G9U U10G C12G C13U,1.11
7,U7C G9U U10G C12G C13A,1.2
8,U7C G9U U10G C12U C13U,1.69
9,U7C G9U U10G C12U C13G,1.15
10,U7C G9U U10G C12U C13A,1.2
11,U7C U8A G9A U10C C12A C13A,1.14
12,U7C U8A G9A U10C C12A C13U,1.24
13,U7C U8A G9A U10C C12A C13G,1.16
14,U7C G9U U10C U11G C12G C13A,1.1
15,U7C G9U U10C U11G C12G C13G,1.11
16,U7C G9U U10C U11G C12G C13U,1.11
17,U7C U8A G9A U10C U11C C12A,1.09
18,U7C U8A G9A U10C U11C C12U,1.04
19,U7C U8A G9A U10C U11C C12G,1.09
20,U7C G9U U11G C12G C13G,1.17
21,U7C G9U U11G C12G C13A,1.18

row,Variant,aptazyme ON/OFF ratio
1,U7C G9U U11G C12G C13U,1.1
2,U7C U8A G9A U10A U11A C12G C13A,1.2
3,U7C U8A G9A U10A U11A C12G C13G,1.28
4,U7C U8A G9A U10A U11A C12G C13U,1.22
5,U7C G9U U10C U11G C13G,1.04
6,U7C G9U U10C U11G C13A,1.24
7,U7C G9U U10C U11G C13U,1.23
8,U7C G9U U10G U11G C12G C13G,1.12
9,U7C G9U U10G U11G C12G C13A,1.13
10,U7C G9U U10G U11G C12G C13U,1.08
11,U7C U8A G9A U10G U11A C12G C13U,1.24
12,U7C U8A G9A U10G U11A C12G C13A,1.06
13,U7C U8A G9A U10G U11A C12G C13G,1.07
14,U7C G9U U10C U11G C12U,1.22
15,U7C G9U U10C U11G C12G,1.1
16,U7C G9U U10C U11G C12A,1.09
17,U7C U8A G9A U10A U11G C12G C13A,1.26
18,U7C U8A G9A U10A U11G C12G C13G,1.28
19,U7C U8A G9A U10A U11G C12G C13U,1.18
20,U7C G9U U10G U11G C13G,1.1
21,U7C G9U U10G U11G C13A,1.09

row,Variant,aptazyme ON/OFF ratio
1,U7C G9U U10G U11G C13U,1.1
2,U7C G9U U11A C12G,1.33
3,U7C G9U U11A C12U,1.39
4,U7C G9U U11A C12A,1.36
5,U7C U8A G9A,1.22
6,U7C U8A G9A U10A U11C C12G C13U,1.18
7,U7C U8A G9A U10A U11C C12G C13G,1.35
8,U7C U8A G9A U10A U11C C12G C13A,1.14
9,U7C U8A G9A U10A U11C C13U,1.05
10,U7C U8A G9A U10A U11C C13G,1.03
11,U7C U8A G9A U10A U11C C13A,1.03
12,U7C U8A G9A U10C U11A C12G C13U,1.18
13,U7C U8A G9A U10C U11A C12G C13G,1.17
14,U7C U8A G9A U10C U11A C12G C13A,1.12
15,U7C G9U U10G U11C C13A,1.28
16,U7C G9U U10G U11C C13U,1.07
17,U7C G9U U10G U11C C13G,1.06
18,U7C G9U U10G U11G C12G,1.14
19,U7C G9U U10G U11G C12U,1.16
20,U7C G9U U10G U11G C12A,1.22

# — the RNAGym collection of RNA variant scans (doi:10.1021/acssynbio.7b00057)
